Source: publication PMC7215387, “Comparison of Target Recognition by TRAF1 and TRAF2” (International Journal of Molecular Sciences, 2020)

How the values were obtained:
[1] = target: T1, TRAF2 (Homo sapiens, UniProt Q12933); test: Surface plasmon resonance (SPR), TRAF2; format: binding; conditions: TRAF2 versus TRAF1
T1 construct: TRAF2 TRAF domain (amino acid residues 305-501); 6xHis (C); made in house; host or cells: E. coli BL21 (DE3)
T1 sequence (Q12933 305-501): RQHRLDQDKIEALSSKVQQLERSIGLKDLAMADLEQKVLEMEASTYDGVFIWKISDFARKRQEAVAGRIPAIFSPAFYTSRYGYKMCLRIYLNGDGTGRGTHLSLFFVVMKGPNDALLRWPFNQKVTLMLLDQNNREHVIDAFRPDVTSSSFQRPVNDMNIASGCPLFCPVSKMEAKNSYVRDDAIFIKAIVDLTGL
Method: The binding affinities between TRADD-N and TRAF1 or TRAF2 were further quantitatively analyzed using surface plasmon resonance (SPR) experiments (Figure 3a,b). For the SPR experiment, each purified 6xHis-tagged TRAF1 and TRAF2 was coupled to Ni-NTA sensor chips using a His-tag affinity system. Different concentrations of TRADD-N protein, from 0.39 to 3.125 μM, were analyzed for binding to TRAF1 or TRAF2. […] Given their interaction patterns and affinity differences in complex formation, we modeled the structure of the TRAF1:TRADD-N complex by docking TRADD-N to a previously solved TRAF1 structure based on the TRAF2:TRADD-N complex to better understand the affinity differences (Figure 3c,d). According to the previously determined structure of the TRAF2:TRADD-N complex, two distinct binding regions, Region I and II, were identified (Figure 3e). The specific residues from TRAF2 that contributed to the interaction in Region I were T401, H406, L471, and P474. The interaction-contributing residues on TRAF2 in Region II were D445, R448, P449, D450, S454 and G468. All residues in TRAF2 that participated in the interaction with TRADD-N were conserved in TRAF1, except for S454, which was replaced by alanine in TRAF1 (Figure 3f). The side chain of S454 in TRAF2 formed a stable hydrogen bond with the side chain of Q143 on TRADD-N and contributed to the stable interaction between these two proteins. […]

[2] = target: T1, TRAF2; test: Native-PAGE complex formation with TRAF2; format: binding; conditions: 8% to 25% acrylamide gradient gels, Coomassie; 1 h at 4 °C; TRAF2 TRAF domain (305-501)
Description: TRADD is a well-known regulator of the TRAF function. The death domain located at the C-terminus of TRADD interacts with death-domain containing receptors and adaptor proteins including TNFR, receptor interacting protein 1 (RIP1) and Fas-associated death domain protein (FADD), while the N-terminal domain of TRADD (TRADD-N) interacts with the TRAF domain of TRAF2 (Figure 2a). Although several indirect interactions between TRAF1 and TRADD have been described, a direct interaction and direct analyses between TRAF1 and TRADD have not been reported. To directly study their interactions and binding properties, which may provide important clues for understanding TRAF-mediated signaling by TRADD, TRAFs and TRADD-N were purified, and initial interaction testing was performed by Native-PAGE. […] Although TRAF1 did interact with TRADD-N, this interaction was not as tight as with TRAF2 (Figure 2b). To further confirm this association, the interaction between the TRAFs and TRADD-N was further tested by size-exclusion chromatography. […]
The formation of complexes was assayed by native (non-denaturing) PAGE conducted on a PhastSystem (GE Healthcare) with pre-cast 8% to 25% acrylamide gradient gels (GE Healthcare). […] Complex formation was evaluated based on the appearance of newly formed bands or the disappearance of bands that were detected in single control protein bands.

B1: TRADD-N: N-terminal domain of TRADD (TRADD-N, amino acid residues 1-163) (protein)
chain: MAAGQNGHEEWVGSAYLFVESSLDKVVLSDAYAHPQQKVAVYRALQAALAESGGSPDVLQMLKIHRSDPQLIVQLRFCGRQPCGRFLRAYREGALRAALQRSLAAALAQHSVPLQLELRAGAERLDALLADEERCLSCILAQQPDRLRDEELAELEDALRNLK
modifications: left off: His6 (from the vector pET24a), C-terminal, state not stated
[1]
  affinity of TRAF2 for TRADD-N relative to that of TRAF1: four times higher
[2]
  Native-PAGE band change on incubation with TRAF2: the TRADD-N band was completely absent, forming a new complex band
